Assay results from IntAct's records for PubMed 22759634.

B1: DNA annealing helicase and endonuclease ZRANB3 (Homo sapiens), Q5FWF4 (parent)
chain: MPRVHNIKKSLTPHISCVTNESDNLLDFLPDRLRAKLLPFQKDGIIFALKRNGRCMVADEMGLGKTIQAIGITYFYKEEWPLLIVVPSSLRYPWTEEIEKWIPELSPEEINVIQNKTDVRRMSTSKVTVLGYGLLTADAKTLIDALNNQNFKVVIVDESHYMKSRNATRSRILLPIVQKARRAILLTGTPALGRPEELFMQIEALFPQKFGRWTDYAKRYCNAHIRYFGKRPQWDCRGASNLNELHQLLSDIMIRRLKTEVLTQLPPKVRQRIPFDLPSAAAKELNTSFEEWEKIMRTPNSGAMETVMGLITRMFKQTAIAKAGAVKDYIKMMLQNDSLKFLVFAHHLSMLQACTEAVIENKTRYIRIDGSVSSSERIHLVNQFQKDPDTRVAILSIQAAGQGLTFTAASHVVFAELYWDPGHIKQAEDRAHRIGQCSSVNIHYLIANGTLDTLMWGMLNRKAQVTGSTLNGRKEKIQAEEGDKEKWDFLQFAEAWTPNDSSEELRKEALFTHFEKEKQHDIRSFFVPQPKKRQLMTSCDESKRFREENTVVSSDPTKTAARDIIDYESDVEPETKRLKLAASEDHCSPSEETPSQSKQIRTPLVESVQEAKAQLTTPAFPVEGWQCSLCTYINNSELPYCEMCETPQGSAVMQIDSLNHIQDKNEKDDSQKDTSKKVQTISDCEKQALAQSEPGQLADSKEETPKIEKEDGLTSQPGNEQWKSSDTLPVYDTLMFCASRNTDRIHIYTKDGKQMSCNFIPLDIKLDLWEDLPASFQLKQYRSLILRFVREWSSLTAMKQRIIRKSGQLFCSPILALEEITKQQTKQNCTKRYITKEDVAVASMDKVKNVGGHVRLITKESRPRDPFTKKLLEDGACVPFLNPYTVQADLTVKPSTSKGYLQAVDNEGNPLCLRCQQPTCQTKQACKANSWDSRFCSLKCQEEFWIRSNNSYLRAKVFETEHGVCQLCNVNAQELFLRLRDAPKSQRKNLLYATWTSKLPLEQLNEMIRNPGEGHFWQVDHIKPVYGGGGQCSLDNLQTLCTVCHKERTARQAKERSQVRRQSLASKHGSDITRFLVKK

Variants of: B1
Details: with pcna_human PCNA

Variant | effect of a mutation on the interaction
Q519A;F525A;F526A | disrupting interaction strength

Variants of: B1
Details: with pcna_human PCNA
Remark: another data set of the same source

Variant | effect of a mutation on the interaction
Q519A;F525A;F526A;Y632A | decreasing interaction strength
